B1: α-purothionin: clone 84-derived wheat allergen expressed as recombinant protein with C-terminal hexahistidine tag in E. coli (protein, listed as Triticum aestivum)
chain: LSSGLSCPKGFPKLALESNSDEPDTIEYCNLGCRSSVCDYMVNAAADDEEMKLYVENCADACVSFCNGDAGLPSLDAY
modifications: C-terminal His6 tag
notes: clone 84-derived wheat allergen expressed as recombinant protein with C-terminal hexahistidine tag in E. coli
B2: C175: recombinant protein of clone 175: the three C-terminal regions of GluB3-23 and the hexa-histidine tag (protein)
chain: RQQLGQGQQGYYPTSLQPGQKQQAGQGQQSGQGQQGYYPTSPQQSGQGQQPGQGQPGYYPTSPQQSGQWQQPGQGQQPGQGQQSGQWQLVYYPTSPQQQIVLQQRPPFLQQQQPSLPQQPPFSQQQQQLVLPQQQIPFVHPSILQQLNPCKVFLQQQCSPVAMPQSLARSQMLQQSSCHVMQQQCCQQLPQIPQQSRYEAIRAIIYSIILQEQQQVQGSIQTPQQQPQQLGQCVSQPQQQSQQQLGQQPQQQQLAQGTFLQPHQIAQLEVMTSIALRTLPTMCRVNVPLYRTTTSVPFGVGTGVGSYHHHHHH
B3: mal43: recombinant MBP fusion with part of the repetitive domain of HMW glutenin Glu-B1 and hexa-histidine tag (protein)
chain: RNSGQQLGQGQPGYYPTSQQSEQRQQPGQGKQPGQGQQGYYPTSPQQSGQGQQLGQGQPGYYPTSPQQSGQGQQSGQGQQGYYPTSPQQSGQGQQPGQGQSGYFPTSRQQSGQGQQPGQGQQSGQGQQGQQPGQGQQAYYPTSSQQSRQRQQAGQWQRPGQGQPGYYPTSPQQPGQEQQSGQAQQSGQWQLVYYPTSPQQPGQLQQPAQGQQPAQGQQSAQEQQPGQAQQSGQWQLVYYPTSPQQPGQLQQPAQGQQGYYPTSPQQSGQGQQGYYPTSSRHHHHHH
modifications: left off: large carriers
B4: GG1: recombinant gamma gliadin 1 with 6×Histidine at the C terminal end, expressed in E. coli (protein)
chain: MNIQVDPSGQVQWLQQQLVPQLQQPLSQQPQQTFPQPQQTFPHQPQQQVPQPQQPQQPFLQPQQPFPQQPQQPFPQTQQPQQPFPQQPQQPFPQTQQPQQPFPQQPQQPFPQTQQPQQPFPQLQQPQQPFPQPQQQLPQPQQPQQSFPQQQRPFIQPSLQQQLNPCKNILLQQSKPASLVSSLWSIIWPQSDCQVMRQQCCQQLAQIPQQLQCAAIHSVVHSIIMQQQQQQQQQQGIDIFLPLSQHEQVGQGSLVQGQGIIQPQQPAQLEAIRSLVLQTLPSMCNVYVPPECSIMRAPFASIVAGIGGQHHHHHH
B5: mal82: recombinant MBP fusion with part of repetitive region and C-terminal non repetitive region of Glu-B1, hexa-histidine tag (protein)
chain: PTSPQQSGQGQQGYYPTSPQQSGQGQQGYYPTSPQQSGQGQQPGQGQQPRQGQQGYYPISPQQSGQGQQPGQGQQRYYPTSPQQSGQGQQPGHEQQPGQWLQPGQGQQGYYPTSSQQSGQGHQSGQGQQGYYPTSLWQPGQGQQPGQGQQGYASPYHVSAEYQAARLKVAKAQQLAAQLPAMCRLEGSDALSTRQHHHHHH
modifications: left off: large carriers
B6: GluB3-23: recombinant full length s-LMW glutenin GluB3-23 of wheat without signal peptide, plus hexa-histidine tag (protein)
chain: MKTFLIFALLAIVATSAIAQMENSHIPGLERPSQQQPLPPQQTLSHHQQQQPIQQQPQPFSQQQPCSQQQQQPLSQQQQPPFSQQQPPFSQQQQQPLSQQQQPPFSQQQPPFSQQQQPPFSQQQPPFSQQQQPVLPQQPSFSQQQLPPFSQQQSPFSQQQQIVLQQQPPFLQQQQPSLPQQPPFSQQQQQLVLPQQQIPFVHPSILQQLNPCKVFLQQQCSPVAMPQSLARSQMLQQSSCHVMQQQCCQQLPQIPQQSRYEAIRAIIYSIILQEQQQVQGSIQTPQQQPQQLGQCVSQPQQQSQQQLGQQPQQQQLAQGTFLQPHQIAQLEVMTSIALRTLPTMCRVNVPLYRTTTSVPFGVGTGVGSYHHHHHH
B7: Bet v 1: recombinant protein used for control pre-incubation of sera in the IgE inhibition dot blot (protein)
chain: GVFNYETETTSVIPAARLFKAFILDGDNLFPKVAPQAISSVENIEGNGGPGTIKKISFPEGFPFKYVKDRVDEVDHTNFKYNYSVIEGGPIGDTLEKISNEIKIVATPDGGSILKISNKYHTKGDHEVKAEQVKASKEMGETLLRAVESYLLAHSDAYN

Assays:
[1] = test system: serum IgE antibodies from patients suffering from wheat food allergy; assay: IgE reactivity dot blot with sera from wheat food allergic patients; assay type: binding, human; settings: for patients reacting to the recombinant protein (IgE): FIG. 12; for patients showing IgE reactivity: 0.5 μg dotted protein, sera 1:10
Protocol: GluB3-23 is a major allergen in wheat dependent food allergy IgE reactivity of wheat food allergic patients to GluB3-23 and C175 was tested by dot blot analysis shown in FIG. 10 and FIG. 11. 0.5 μg of purified recombinant proteins (GluB3-23 and C175), 2 μg aqueous wheat seed (WSE) extract and 0.5 μg of human serum albumin (HSA) were dotted onto nitrocellulose (Whatman Protran nitrocellulose membrane, Sigma Aldrich) strips and after blocking with buffer A (50 mM sodium phosphate buffer, pH7.4, 0.5% w/v BSA, 0.5% v/v Tween-20, 0.05% w/v NaN3) incubated with 1:10 diluted sera from patients suffering from wheat food allergy. Bound IgE Abs were detected with 1:10 diluted ^125I labeled anti human IgE Abs and visualized by autoradiography.
Sera were obtained from populations of patients suffering from wheat food allergy. Patients were selected according to positive case history, positive Skin Prick Test (SPT), double blind or open food challenge or CAP-test (Phadia, Uppsala, Sweden) to wheat.
The recombinant high molecular weight proteins mal43 and mal82, representing partial proteins of Glu-B1, were tested in dot blots with sera from patients from a population shown in FIG. 11. Sera were obtained from patients suffering from wheat food allergy. Patients were selected according to positive case history and positive Skin Prick Test (SPT) or CAP-test (Phadia, Uppsala, Sweden) to wheat. 0.5 μg of purified recombinant proteins (mal43 and mal82), 2 μg aqueous wheat seed (WSE) extract and 0.5 μg of human serum albumin (HSA) were dotted onto nitrocellulose (Whatman Protran nitrocellulose membrane, Sigma Aldrich) strips and after blocking with buffer A incubated with 1:10 diluted patients sera. Bound IgE Abs were detected with 1:10 diluted ^125I labeled anti human IgE Abs and visualized by autoradiography. […] On the basis of WHO/IRIS Allergen Standardization Committee definition (www.allergen.org), an allergen recognized by 10% of the patients is a minor allergen.
The IgE reactivity of dot-blotted recombinant wheat α-purothionin was tested with serum IgE antibodies from patients suffering from wheat food allergy (Table 3). […] 23% of patients from one population (n=13) and 29% of the patients from another population (n=24) reacted to the recombinant α-purothionin. (FIG. 12).

[2] = test system: serum IgA of celiac disease patients; assay: IgA reactivity ELISA to wheat food antigens; assay type: binding, human; settings: 5 μg/ml coated, sera 1:100, read at 405 nm, FIG. 15
Protocol: 100 μl of the wheat proteins GG1 (Gamma gliadin 1), GG2 (Gamma gliadin 2), α-purothionin, GluB3-23, C-175, Mal 82 and Mal 43 of a concentration of 5 μg/ml were coated overnight at 4° C. onto Nunc Maxisorp Elisa plates. The remaining free binding sites were blocked with 1% BSA in PBST for 2 hours at room temperature. 100 μl of sera from celiac disease patients, celiac patients on diet and negative controls were added at a dilution of 1:100 in 0.5% BSA in PBST buffer and incubated for 12 hours at 4° C. The plates were washed 5 times in PBST buffer and 100 μl of mouse anti-human IgA1/A2 (BD Biosciences) diluted to 1:1000 in 0.5% BSA/PBST buffer was added and incubated at room temperature for 5 hours. The plates were then washed 5 times with PBST and 100 μl of sheep anti-mouse IgG conjugated with Horse radish peroxidise (HRP) (Amersham) antibodies were added and incubated at 37° C. for one hour.

IgE binding to GluB3-23 = assay: IgE inhibition dot blot (sera pre-incubated with recombinant protein); set-up: species or system human
Protocol: An inhibition dot blot was performed with patients' sera. […] Bound IgE Abs were detected with ^125I-labelled anti human IgE Abs and visualized by autoradiography, the dot intensity was measured by a gamma counter.

[3] = test system: serum IgA from Dermatitis herpetiformis (DH) patients; assay: Dermatitis herpetiformis serum IgA reactivity ELISA; assay type: binding, human; settings: 5 μg/ml coated; n=12 DH patients, 2 healthy controls; FIG. 18
Protocol: ELISA plates were coated with 100 μl of 5 μg/ml rGamma gliadin 1, rGamma gliadin 2, α-gliadin peptide p56-75 (α-gli peptide), deamidated α-gliadin peptide (D) and Human serum albumin. The bound proteins were probed with sera from Dermatitis herpetiformis (DH) patients and healthy controls. IgA reactivity to the proteins was detected using mouse anti-human IgA1/A2 and sheep anti-mouse IgG-HRP labelled antibody. (n=12 DH patients and 2 healthy controls).

[4] = another wheat food allergy patient population, FIG. 11
[5] = wheat food allergy patient population of FIG. 10
[6] = serum Pat 3, pre-incubated with 10 μg protein
[7] = serum Pat 8, pre-incubated with 10 μg protein
[8] = serum Pat 10, pre-incubated with 10 μg protein
[9] = serum Pat 11, pre-incubated with 10 μg protein
[10] = serum Pat 12, pre-incubated with 10 μg protein

Row | Molecule | IgA reactivity [2] | patients showing IgE reactivity [1, 4] [%] | bound IgE, dot intensity by gamma counter (IgE binding to GluB3-23; [6]) [cpm] | bound IgE, dot intensity by gamma counter (IgE binding to GluB3-23; [8]) [cpm] | bound IgE, dot intensity by gamma counter (IgE binding to GluB3-23; [9]) [cpm] | bound IgE, dot intensity by gamma counter (IgE binding to GluB3-23; [10]) [cpm] | other results
1 | B1 | negative | – | – | – | – | – | patients reacting to the recombinant protein (IgE) ([1]; another population (n=24)): 29%; patients reacting to the recombinant protein (IgE) ([1]; one population (n=13)): 23%
2 | B2 | moderate | 73.1 | 650.0 | 379.1 | 190.0 | 16.2 | patients showing IgE reactivity [1, 5]: 27.3%; % inhibition of IgE binding (IgE binding to GluB3-23; [6]): 22.6%; % inhibition of IgE binding (IgE binding to GluB3-23; [7]): 3.0%; bound IgE, dot intensity by gamma counter (IgE binding to GluB3-23; [7]): 73.9 cpm; % inhibition of IgE binding (IgE binding to GluB3-23; [8]): 0.0%; % inhibition of IgE binding (IgE binding to GluB3-23; [9]): 55.3%; potential to inhibit IgE binding to GluB3-23 (IgE binding to GluB3-23; summary of Table 2): low potential to inhibit IgE binding
3 | B3 | moderate | 30.8 | – | – | – | – | –
4 | B4 | high | – | – | – | – | – | IgA reactivity, DH patients versus healthy controls [3]: higher IgA reactivity to sera from DH patients than to healthy controls
5 | B5 | moderate | 30.8 | – | – | – | – | –
6 | B6 | moderate | 80.8 | 326.0 | 36.0 | 58.9 | 17.7 | patients showing IgE reactivity [1, 5]: 54.5%; % inhibition of IgE binding (IgE binding to GluB3-23; [6]): 63.3%; % inhibition of IgE binding (IgE binding to GluB3-23; [7]): 100.0%; bound IgE, dot intensity by gamma counter (IgE binding to GluB3-23; [7]): 31.5 cpm; % inhibition of IgE binding (IgE binding to GluB3-23; [8]): 100.0%; % inhibition of IgE binding (IgE binding to GluB3-23; [9]): 93.8%
7 | B7 | – | – | 829.0 | 377.6 | 379.0 | 11.5 | –

Reference: patent publication US20140037661A1, “Wheat Antigens and Peptides for Diagnosis of Wheat Induced Hypersensitivity” (PHADIA AB, priority 2011, published 2014)
